In publication PMC6075034:

T1: Yra1 (Saccharomyces cerevisiae, UniProt Q12159 1-226)
T1 sequence: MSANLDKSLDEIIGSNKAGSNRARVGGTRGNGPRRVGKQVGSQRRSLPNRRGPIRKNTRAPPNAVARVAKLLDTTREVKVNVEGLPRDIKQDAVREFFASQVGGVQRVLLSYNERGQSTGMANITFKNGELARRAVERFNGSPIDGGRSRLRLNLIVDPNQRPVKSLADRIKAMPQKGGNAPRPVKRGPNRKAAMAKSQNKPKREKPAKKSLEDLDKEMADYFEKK

B1: DNA-25C ssDNA (ssDNA)
DNA: AGCGTGCCGTGCAACAACATTACAC
B2: RNA-25 ssRNA (ssRNA)
RNA: GUGUAAUGUUGUUGCACGGCACGCU
B3: 25-bp dsRNA (RNA-25 + complementary RNA; RNA-25C is printed identical to RNA-25, apparent misprint, complement built) (dsRNA)
RNA 1: GUGUAAUGUUGUUGCACGGCACGCU
RNA 2: AGCGUGCCGUGCAACAACAUUACAC
B4: 25-bp RNA-DNA hybrid (RNA-25/DNA-25C) (DNA:RNA)
RNA: GUGUAAUGUUGUUGCACGGCACGCU
DNA: AGCGTGCCGTGCAACAACATTACAC

molecular target: T1, Yra1; experiment: EMSA

Binding result, binds:
B1
B2
B3
B4
